# Assays:
# [1] = tested on: pri-mir-675; assay: TaqMan QRT-PCR of pri-mir-675 from transfected constructs in HEK293 cells; assay type: cell-based, human; conditions: 24 h post-transfection
# Excerpt: RNA Extraction. RNA from HEK293 cells was extracted for Northern blot assay and QPCR. The miRVANA miRNA isolation kit (ThermoFisher Scientific) was used according to manufacturer's directions to extract total RNA encompassing small RNAs, such as miRNAs. To extract RNA from C57BL/6 skeletal muscles, cryopreserved muscles were crushed under suboptimal temperatures using liquid nitrogen and using mortar and pestle. Crushed muscles were then lysed using […] of miRVANA miRNA isolation kit lysis buffer, a TissueLyser and 1.0 mm zirconia beads (Biospec). Muscle was homogenized at 30 Hz for 30 sec with 10 sec rest. This was repeated 3 times.
# TaqMan Gene Expression Assay. QRT-PCR was carried out to quantify the expression of pri-mir-675, mir-675-5p and mi405 using TaqMan probes (ThermoFisher Scientific). Experiments were started by eliminating genomic DNA from the RNA preparations, and then cDNA was generated using the High-Capacity cDNA Reverse Transcription Kit (Applied Biosystems) following manufacturer's instructions. Within the same cDNA reaction, 1×RT random hexamer primers were used to generate the cDNA for RPL13A, used as a reference gene, and for pri-mir-675. To generate the cDNA for mir-675, the RT mir-675 reverse primer provided by ThermoFisher Scientific was used. For mi405, the mi405 qPCR protocol was done as it was previously described [Wallace et al., Mol. Ther. Methods Clin. Dev. 8: 121-30 (2018)]. To quantify mir-675 and mi405 levels, RNA was extracted using the total RNA protocol for the mirVana miRNA Isolation Kit (Ambion) from HEK293 cells. cDNA was generated using the High-Capacity cDNA Reverse Transcription Kit (Applied Biosystems) using a mix of random hexamer primers and specific reverse primer for pri-mir-675 and mir-675-5p. For mi405, 200 nM of the stem-loop forming primer (5′-[…]-3′) (SEQ ID NO: 144) was also used for the RT step. A custom TaqMan assay (Applied Biosystems) including 1.5 μM of Forward primer (5′-[…]-3′) (SEQ ID NO: 145), 0.7 μM of Reverse primer (5′-GTGCAGGGTCCGAGGT-3′) (SEQ ID NO: 146), and 0.2 μM of mi405 probe (5′-6FAM-ATACGACGTCCAGGAT-3′) (SEQ ID NO: 147) was then run using the CFX Connect Real Time system apparatus (Bio-Rad). RPL13A (Mm02526700_g1; Applied Biosystems) served as the reference gene. The TaqMan gene expression assay consisted of using the TaqMan Gene Expression Master mix and TaqMan probes purchased from ThermoFisher Scientific. 1× of probe was mixed with 1× of the TaqMan Gene Expression Master mix (ThermoFisher Scientific), and with 20 ng of cDNA. The mir-675- and mi405-specific primers and probes were designed to quantify only the mir-675-5p and mi405 mature sequence (see TaqMan Gene Expression Master mix protocol).
# [2] = tested on: CDC6; assay: QPCR of CDC6 in transfected HEK293 cells; assay type: cell-based, human; conditions: 48 h, relative to U6.milacZ
# Procedure: The expression of SMAD1, SMAD5 and CDC6 was measured by QPCR in HEK293 cells using TaqMan probes specific to each investigated gene. To do that, U6.milacZ (negative control), H1.mir-675, U6.mir-675-3p or U6.mir-675-5p expressing constructs were transfected into HEK293 cells, and total RNA was extracted 48h after transfection. As a result, U6.mir-675-3p reduced SMAD1 levels by an average of 32±6% (P<0.044, ANOVA, N=3) and SMAD5 levels by an average of 35±6% (P<0.0013, ANOVA, N=3). On the other hand, H1.mir-675 and U6.mir-675-5p repressed CDC6 levels by an average of 38±4% (P<0.0034, ANOVA, N=3) and 36±7% (P<0.0048, ANOVA, N=3), respectively. Results were reported as relative gene expression (ΔΔCq)±SEM of three replicates (N=3) relative to gene expression in cells transfected with U6.milacZ, with each QPCR assay performed in triplicate. All results were quantified using as reference gene the house keeping gene RPL13A.
# Along with a previous study showing the beneficial effect of mir-675 on regeneration and differentiation of injured mouse skeletal muscles [Dey et al., Genes Dev. […] QPCR was used to measure the expression of SMAD1, SMAD5 and CDC6 in HEK293 cells using TaqMan probes specific to each investigated gene. […] All results were quantified using as reference gene the house keeping gene RPL13A. […]
molecule,measurement,setting,value
H1.mir-675: commercially available H1 promoter mir-675 expression plasmid (SBI Biosciences) (nucleic acid) DNA: GAACGCTGACGTCATCAACCCGCTCCAAGGAATCGCGGGCCCAGTGTCACTAGGCGGGAACACCCAGCGCGCGTGCGCCCTGGCAGGAAGATGGCTGTGAGGGACAGGGGAGTGGCGCCCTGCAATATTTGCATGTCGCTATGTGTTCTGGGAAATCACCATAAACGTGAAATGTCTTTGGATTTGGGAATCTTATAAGTTCTGTATGAGACCACCCCCCAGGGTCTGGTGCGGAGAGGGCCCACAGTGGACTTGGTGACGCTGTATGCCCTCACCGCTCAGCCCCTGGGGAATTCTTCGATTCTGCTTTTTT,pri-mir-675 levels compared to U6.mir-675,[1],320±43%
same,repression of CDC6 levels,[2],38±4%
